The values that follow are results of earlier work, collected in article PMC5418926.

The series concerns the target Lys53 (UniProt position 53, YGGQTKPIFRK). Kind of series: chemical modification (inferred: crosslinking with periodate-oxidised tRNA); not described in this article.

In general, pKa refers to the negative logarithm of the acid dissociation constant. For the substance “60S ribosomal protein eL42 (L36a-like / RPL36AL), endogenous, in the human 80S ribosome (Homo sapiens)”, the pKa (endogenous eL42 in situ in the human 80S ribosome, crosslinked with tRNAox) was 6.9 ± 0.1. Regarding “60S ribosomal protein eL42 (formerly L36a / RPL36A), recombinant (Homo sapiens)”, the pKa (recombinant eL42 off the ribosome) is 6.9 + 0.1.
